Source: patent US20260125455A1 (CLEVELAND CLINIC FOUNDATION, published 2026)

Legend:
[1] = biological target: T1, human complement protein C6 (human, UniProt P13671 22-934); test: BLI (Octet), antibody on Protein G biosensors, 1:1 fit, experiment 2
T1 construct: also called human C6; C6 antigen

[2] = biological target: T1, human complement protein C6; test: ELISA, expression supernatant, anti-human IgG Fc-specific detection
Description: (§1) The chimeric molecules, MoC601 HuG4K and MoC601 HuG1KFab, were tested for C6 binding in the form of expression supernatants. In this experiment, the human molecules were detected with an HRP-conjugated goat anti-human kappa chain reagent, which gave relative low signals. However, the binding of both chimeric molecules to C6 was confirmed. The EC₅₀ value for MoC601 HuG4K (0.43 nM) was higher than that of the mouse antibody (0.07 nM), though this was lower than in previous experiments. A further experiment was performed to find a more suitable anti-human antibody detection reagent. MoC601 HuG4K from expression supernatant was detected with three different secondary antibodies. Both anti-human IgG Fc-specific and Fab-specific detection gave higher signals than the anti-kappa chain reagent but the Fc-specific detection yielded a very low EC₅₀ (0.03 nM).

[3] = biological target: T1, human complement protein C6; test: ELISA, C6-coated wells, purified antibody
[4] = biological target: T1, human complement protein C6; test: C6-binding ELISA, A650 nm; sample 'mouse serum' (28 days at 37 C)
Description: (§2) For the serum stability assessment, samples of the purified candidate antibodies are normally incubated in mouse, human and cynomolgus serum at 37 C for 28 days and then tested in an antigen-binding ELISA. Since the anti-C6 antibodies are expected to bind to both human and cynomolgus C6 but not mouse C6, we anticipated that incubating in human or cynomolgus sera would reduce ELISA binding due to occupation of the antibody binding sites by C6 protein from the sera. Therefore, the chimeric and humanized antibodies were tested with human and mouse sera and with human sera from which the C6 protein has been depleted. […]
(§3) Binding ELISAs used Nunc Maxisorp 384-well plates, wells coated with C6, C5b,6 complex or C5 (Complement Technology Inc, TX) and goat anti-human IgG (Fab specific) peroxidase secondary antibodies (Sigma-Aldrich, A0293) for detection. For the thermal stability assay, IgG supernatants were diluted to their EC₈₀ concentration, incubated at different temperatures for 10 min and C6 binding measured by ELISA with the binding signal plotted against temperature. Kinetics of C6 binding were measured by capturing antibodies from supernatant samples using Protein G biosensors and performing a 20 min association step with 2.5 nM C6 and a 20 min dissociation step using the Octet RED96. […]

[5] = biological target: T1, human complement protein C6; test: ELISA, expression supernatant, anti-human kappa detection
Description: as §1

[6] = biological target: T1, human complement protein C6; test: ELISA, expression supernatant, anti-human IgG (Fab-specific) detection
Description: as §1

[7] = biological target: T1, human complement protein C6; test: C6-binding ELISA, A650 nm; sample 'C6-depleted human serum' (28 days at 37 C)
Description: as §2, §3

[8] = biological target: T1, human complement protein C6; test: C6-binding ELISA, A650 nm; sample 'human serun' (human serum, 28 days at 37 C)
Description: as §2, §3

[9] = biological target: human complement protein C5 (human, UniProt P01031 19-673; P01031 678-1676); test: ELISA, C5-coated wells
Chain of human complement protein C5 (P01031 19-673 limits assumed, chain 1 of 2): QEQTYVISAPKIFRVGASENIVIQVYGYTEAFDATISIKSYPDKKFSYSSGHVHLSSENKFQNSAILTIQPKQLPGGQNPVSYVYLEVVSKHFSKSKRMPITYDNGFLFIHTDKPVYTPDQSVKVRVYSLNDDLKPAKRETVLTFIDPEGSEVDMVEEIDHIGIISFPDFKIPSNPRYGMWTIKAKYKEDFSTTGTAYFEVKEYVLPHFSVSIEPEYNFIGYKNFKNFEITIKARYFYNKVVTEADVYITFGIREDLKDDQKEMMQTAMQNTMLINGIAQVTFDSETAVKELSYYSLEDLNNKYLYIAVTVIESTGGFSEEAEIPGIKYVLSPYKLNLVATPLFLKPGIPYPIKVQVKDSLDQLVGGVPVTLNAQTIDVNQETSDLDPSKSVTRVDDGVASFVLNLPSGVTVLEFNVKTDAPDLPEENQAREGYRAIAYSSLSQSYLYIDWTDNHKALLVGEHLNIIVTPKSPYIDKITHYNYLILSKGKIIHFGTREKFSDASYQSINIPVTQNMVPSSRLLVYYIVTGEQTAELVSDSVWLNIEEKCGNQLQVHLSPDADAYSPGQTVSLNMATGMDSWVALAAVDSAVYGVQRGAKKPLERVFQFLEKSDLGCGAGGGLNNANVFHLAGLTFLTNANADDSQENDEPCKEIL
Chain of human complement protein C5 (P01031 678-1676 limits assumed, chain 2 of 2): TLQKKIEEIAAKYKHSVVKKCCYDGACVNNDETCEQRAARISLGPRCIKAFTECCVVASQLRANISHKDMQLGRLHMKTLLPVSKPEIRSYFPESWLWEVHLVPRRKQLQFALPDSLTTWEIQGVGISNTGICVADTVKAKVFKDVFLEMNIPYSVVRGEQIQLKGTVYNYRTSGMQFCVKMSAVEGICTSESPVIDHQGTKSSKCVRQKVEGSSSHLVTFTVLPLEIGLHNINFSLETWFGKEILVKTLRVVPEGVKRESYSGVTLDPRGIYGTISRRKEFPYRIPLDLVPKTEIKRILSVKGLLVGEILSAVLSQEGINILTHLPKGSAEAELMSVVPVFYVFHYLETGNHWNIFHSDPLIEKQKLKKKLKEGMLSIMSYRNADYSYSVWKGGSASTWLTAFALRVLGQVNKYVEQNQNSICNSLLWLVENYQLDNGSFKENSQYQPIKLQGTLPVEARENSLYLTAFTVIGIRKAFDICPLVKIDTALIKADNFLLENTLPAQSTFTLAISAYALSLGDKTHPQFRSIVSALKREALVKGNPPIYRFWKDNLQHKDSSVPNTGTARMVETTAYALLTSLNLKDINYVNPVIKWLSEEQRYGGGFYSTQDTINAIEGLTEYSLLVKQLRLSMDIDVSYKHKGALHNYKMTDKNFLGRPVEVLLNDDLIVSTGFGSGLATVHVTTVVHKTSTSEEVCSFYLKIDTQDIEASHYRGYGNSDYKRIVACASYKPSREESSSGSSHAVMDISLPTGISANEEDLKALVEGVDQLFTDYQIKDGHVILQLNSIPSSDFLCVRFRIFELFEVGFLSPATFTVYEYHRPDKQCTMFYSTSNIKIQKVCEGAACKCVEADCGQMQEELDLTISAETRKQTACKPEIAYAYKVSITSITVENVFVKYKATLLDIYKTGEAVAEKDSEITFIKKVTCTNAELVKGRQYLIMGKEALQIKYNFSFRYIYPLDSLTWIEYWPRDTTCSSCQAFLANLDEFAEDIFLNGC
Description: The 20 purified antibodies were tested by ELISA for their abilities to bind human complement proteins C5, C5b6 and C6. The antibodies were divided into two sets for this analysis. MoC601 HuG4K and HuG4K isotype controls were included alongside each set, as was C601HFKC4 HuG4K (aka 3713) expression supernatant from the original transfection as an additional positive control. In addition, three humanized antibodies (C601HFKC4 HuG4K, C601HPKI HuG4K and C601HPKC4 HuG4K) were included within both sets to allow better comparison between the plates. The antibodies all show specificity for C6 with no detectable binding to C5. All humanized antibodies bind to C6 and to C6 as part of the C5b6 complex. The lower plateaus of the C5b6 complex binding curves are explained by less C6 protein being available for binding when wells are coated with C5b6 complex as opposed to C6 alone. […] The EC₅₀ values are included in the figure but slightly different plateau levels observed for the antibodies are influencing the apparent EC₅₀ values. However, it was noted that the EC₅₀ values tended to be lower on the plates for the second set of antibodies. For this reason, a subset of the 20 antibodies was tested in a further ELISA for binding to C6 and C5b6 complex.
Binding ELISAs used Nunc Maxisorp 384-well plates, wells coated with C6, C5b,6 complex or C5 (Complement Technology Inc, TX) and goat anti-human IgG (Fab specific) peroxidase secondary antibodies (Sigma-Aldrich, A0293) for detection. For the thermal stability assay, IgG supernatants were diluted to their EC₈₀ concentration, incubated at different temperatures for 10 min and C6 binding measured by ELISA with the binding signal plotted against temperature. Kinetics of C6 binding were measured by capturing antibodies from supernatant samples using Protein G biosensors and performing a 20 min association step with 2.5 nM C6 and a 20 min dissociation step using the Octet RED96. Precise kinetic measurements were obtained by surface plasmon resonance (Biacore 8K, Cytiva). The IgG were captured on a protein G sensor chip. Binding of C6 measured using a three-fold concentration series of C6 from 0.03 nM-25 nM and data were fitted using a 1:1 model in two independent experiments.

[10] = biological target: T1, human complement protein C6; test: C6-binding ELISA, A650 nm; sample 'mouse serum' (28 days at 37 C); remark: listed apart in the source
Description: For the serum stability assessment, samples of the purified candidate antibodies are normally incubated in mouse, human and cynomolgus serum at 37 C for 28 days and then tested in an antigen-binding ELISA. Since the anti-C6 antibodies are expected to bind to both human and cynomolgus C6 but not mouse C6, we anticipated that incubating in human or cynomolgus sera would reduce ELISA binding due to occupation of the antibody binding sites by C6 protein from the sera. Therefore, the chimeric and humanized antibodies were tested with human and mouse sera and with human sera from which the C6 protein has been depleted. The C6-binding ELISA was then used to compare the binding abilities of the C601 antibodies that had been incubated in the 3 different sera to antibody samples that were incubated in PBS at 37 C or kept at 4 C (non-incubated).
The Uncle instrument (Unchained Labs) was used to monitor unfolding via intrinsic fluorescence and aggregation by static light scattering across a temperature gradient to obtain melting temperatures (Tₘ). […] Isoelectric points were determined by capillary isoelectric focusing using a PA800+ (Beckman Coulter). […]

T1 sequence (P13671 22-934 limits assumed): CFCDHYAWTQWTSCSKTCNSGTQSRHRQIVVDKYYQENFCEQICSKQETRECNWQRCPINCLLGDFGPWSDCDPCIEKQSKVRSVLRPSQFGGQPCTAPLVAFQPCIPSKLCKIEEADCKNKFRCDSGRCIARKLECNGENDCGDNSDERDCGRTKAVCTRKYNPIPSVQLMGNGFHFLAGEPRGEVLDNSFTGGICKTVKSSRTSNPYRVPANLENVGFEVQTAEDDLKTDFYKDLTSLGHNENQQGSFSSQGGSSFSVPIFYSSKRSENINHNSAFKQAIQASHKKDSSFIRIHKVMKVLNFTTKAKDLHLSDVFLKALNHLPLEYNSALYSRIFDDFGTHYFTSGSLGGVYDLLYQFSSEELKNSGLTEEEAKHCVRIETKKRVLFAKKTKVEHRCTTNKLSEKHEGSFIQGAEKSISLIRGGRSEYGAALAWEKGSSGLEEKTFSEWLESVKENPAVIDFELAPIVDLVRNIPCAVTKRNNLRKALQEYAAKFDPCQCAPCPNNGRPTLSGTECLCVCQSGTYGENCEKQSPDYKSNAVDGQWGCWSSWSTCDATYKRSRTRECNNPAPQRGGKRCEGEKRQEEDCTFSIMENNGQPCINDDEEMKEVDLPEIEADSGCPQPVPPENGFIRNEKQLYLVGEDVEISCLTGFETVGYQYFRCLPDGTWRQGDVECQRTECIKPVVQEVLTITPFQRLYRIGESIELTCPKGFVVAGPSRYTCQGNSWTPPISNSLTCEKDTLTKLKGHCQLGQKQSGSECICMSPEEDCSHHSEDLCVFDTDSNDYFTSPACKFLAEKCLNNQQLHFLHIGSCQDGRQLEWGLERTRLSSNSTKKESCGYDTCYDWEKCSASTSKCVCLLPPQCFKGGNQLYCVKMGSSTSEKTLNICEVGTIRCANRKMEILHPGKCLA

| Binder | Kd [1] [pM] | koff [1] [s⁻¹] | kon [1] [M⁻¹ s⁻¹] | EC50 [2] [pM] | EC50 [3] [pM] | EC50 [4] [pM] | EC50 [5] [pM] | EC50 [6] [pM] | EC50 [7] [pM] | EC50 [8] [pM] | binding result [9] | EC50 [10] [pM] |
| --- | --- | --- | --- | --- | --- | --- | --- | --- | --- | --- | --- | --- |
| MoC601 HuG4K (chimeric C601 antibody) (antibody, human IgG4 S228P, kappa, V domains shown, also called chimeric antibody; chimeric 1C9) VH: QVQLQQSGAELVKPGASVKISCKASGYAFSDYWMNWVKQRPGKGLEWIGQIYPGDDDTNYNGKFKGKATLTADKSSSTAYMQLSSLTSEDSAVYFCAREGYYGYTYVEYFDVWGTGTTVTVSS VL: QIVLTQSPAIMSVSPGEKVTLTCSASSSVSYMHWYQQKSGTSPKRWIYDTSKLASGVPARFSGSGSGTSYSLTISSMEAEDAATYYCQQWTSNPLTFGAGTKLELRR | 350 | 0.00024 | 690000 | 30 | 200 | 190 | 430 | 300 | 150 | – | – | – |
| C601HFKC4 HuG4K (antibody, human IgG4 S228P, kappa, also called 3713; clone 3713) heavy: not shown light: QIVLTQSPATLSLSPGERATLSCRASSSVSYLHWYQQKPGQSPRLWIYDTSKRATGIPARFSGSGSGTDYTLTISSLEPEDFAVYYCQQWTSNPLTFGQGTKLEIKRTVAAPSVFIFPPSDEQLKSGTASVVCLLNNFYPREAKVQWKVDNALQSGNSQESVTEQDSKDSTYSLSSTLTLSKADYEKHKVYACEVTHQGLSSPVTKSFNRGEC | – | – | – | – | – | – | – | – | – | 190 | no binding | 150 |
